# Experimental data from patent publication US20160031996A1 (CSL, published 2016).
# T1: full length human IL-3Rα, wild type (human, UniProt P26951 19-378)
# T1 construct: expressed in 293F cells; also called WT
# T1 sequence: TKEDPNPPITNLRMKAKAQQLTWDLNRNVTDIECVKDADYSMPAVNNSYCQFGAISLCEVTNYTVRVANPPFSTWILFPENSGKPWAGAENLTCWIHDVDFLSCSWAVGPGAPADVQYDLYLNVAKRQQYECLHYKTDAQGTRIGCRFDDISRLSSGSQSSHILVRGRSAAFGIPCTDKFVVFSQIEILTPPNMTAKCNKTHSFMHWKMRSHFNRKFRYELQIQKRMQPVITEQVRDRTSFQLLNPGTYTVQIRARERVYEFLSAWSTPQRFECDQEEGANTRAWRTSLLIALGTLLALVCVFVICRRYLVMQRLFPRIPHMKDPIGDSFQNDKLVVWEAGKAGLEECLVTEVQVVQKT
# T2: human IL-3Rα E51Q/S59A double mutant, full length (human, UniProt P26951 19-378)
# T2 chain: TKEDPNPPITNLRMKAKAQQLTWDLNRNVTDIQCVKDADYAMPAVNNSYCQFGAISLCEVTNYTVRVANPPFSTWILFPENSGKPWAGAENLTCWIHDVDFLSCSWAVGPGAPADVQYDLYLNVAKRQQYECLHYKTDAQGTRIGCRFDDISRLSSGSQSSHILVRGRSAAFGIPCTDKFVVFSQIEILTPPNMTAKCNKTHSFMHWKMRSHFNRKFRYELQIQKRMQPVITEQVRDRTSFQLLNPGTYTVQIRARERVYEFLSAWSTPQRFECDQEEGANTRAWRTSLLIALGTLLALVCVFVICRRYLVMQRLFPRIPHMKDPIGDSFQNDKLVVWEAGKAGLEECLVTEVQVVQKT
# T3: human IL-3Rα E51Q/P88T double mutant, full length (human, UniProt P26951 19-378)
# T3 chain: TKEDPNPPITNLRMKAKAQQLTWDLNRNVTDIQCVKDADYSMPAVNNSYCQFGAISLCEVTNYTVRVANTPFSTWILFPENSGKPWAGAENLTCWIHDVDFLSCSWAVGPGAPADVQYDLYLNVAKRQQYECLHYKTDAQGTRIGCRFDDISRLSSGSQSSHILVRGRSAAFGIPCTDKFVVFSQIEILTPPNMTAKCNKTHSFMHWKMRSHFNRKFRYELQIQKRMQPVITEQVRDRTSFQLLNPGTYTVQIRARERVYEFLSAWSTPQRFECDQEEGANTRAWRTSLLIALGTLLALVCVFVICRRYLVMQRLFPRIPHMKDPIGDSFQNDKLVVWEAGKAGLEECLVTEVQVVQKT
# T4: human IL-3Rα S59A/P88T double mutant, full length (human, UniProt P26951 19-378)
# T4 chain: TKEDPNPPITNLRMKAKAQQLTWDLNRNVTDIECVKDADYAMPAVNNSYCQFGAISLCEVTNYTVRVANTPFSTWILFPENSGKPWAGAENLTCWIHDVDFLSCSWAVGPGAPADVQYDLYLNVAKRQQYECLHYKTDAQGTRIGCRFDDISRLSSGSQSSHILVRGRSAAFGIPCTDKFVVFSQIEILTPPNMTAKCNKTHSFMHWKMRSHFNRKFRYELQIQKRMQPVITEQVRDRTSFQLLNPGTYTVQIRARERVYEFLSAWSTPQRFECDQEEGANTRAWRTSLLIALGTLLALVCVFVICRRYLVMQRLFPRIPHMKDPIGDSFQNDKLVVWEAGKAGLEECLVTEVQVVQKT
# T5: human IL-3Rα E51Q/S59A/P88T triple mutant, full length (human, UniProt P26951 19-378)
# T5 chain: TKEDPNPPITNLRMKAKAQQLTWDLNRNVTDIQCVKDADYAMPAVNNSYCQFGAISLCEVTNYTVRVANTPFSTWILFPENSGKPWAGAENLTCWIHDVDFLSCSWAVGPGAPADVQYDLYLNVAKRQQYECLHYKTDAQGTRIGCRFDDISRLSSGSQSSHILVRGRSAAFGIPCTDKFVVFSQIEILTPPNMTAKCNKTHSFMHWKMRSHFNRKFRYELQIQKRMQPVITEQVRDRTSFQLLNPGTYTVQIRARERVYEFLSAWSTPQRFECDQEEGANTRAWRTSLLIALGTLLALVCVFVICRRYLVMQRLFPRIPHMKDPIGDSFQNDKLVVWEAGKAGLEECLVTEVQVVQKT
# T6: soluble human IL-3Rα 1-306-His E51A (human, UniProt P26951 19-307)
# T6 construct: supernatant of 293FS cells; also called E51, soluble alanine
# T6 sequence: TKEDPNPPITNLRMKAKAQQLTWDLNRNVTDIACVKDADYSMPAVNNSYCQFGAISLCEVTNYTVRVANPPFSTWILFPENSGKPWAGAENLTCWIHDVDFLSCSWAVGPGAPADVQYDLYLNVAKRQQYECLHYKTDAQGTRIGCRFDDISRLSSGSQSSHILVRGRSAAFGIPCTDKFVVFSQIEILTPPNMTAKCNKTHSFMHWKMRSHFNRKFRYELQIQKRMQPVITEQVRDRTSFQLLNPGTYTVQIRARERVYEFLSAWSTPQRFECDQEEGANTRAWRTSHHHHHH
# T7: soluble human IL-3Rα 1-306-His F70A (human, UniProt P26951 19-307)
# T7 construct: supernatant of 293FS cells; also called F70, soluble alanine
# T7 sequence: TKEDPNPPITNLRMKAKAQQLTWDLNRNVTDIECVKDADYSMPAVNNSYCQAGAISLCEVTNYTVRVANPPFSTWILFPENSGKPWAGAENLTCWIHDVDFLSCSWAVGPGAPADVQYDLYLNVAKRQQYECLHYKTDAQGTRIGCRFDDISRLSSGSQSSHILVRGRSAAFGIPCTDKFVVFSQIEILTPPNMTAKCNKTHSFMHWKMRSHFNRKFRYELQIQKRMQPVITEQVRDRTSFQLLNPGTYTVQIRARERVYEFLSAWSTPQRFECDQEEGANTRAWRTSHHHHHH
# Key:
# [1] = molecular target: T1, full length human IL-3Rα, wild type; assay: flow cytometry, MFI normalised to WT (reference, set as 100%)
# Protocol: Median fluorescence intensity (MFI) of each antibody was determined for WT IL-3Rα and for each IL-3Rα mutant. The MFI of WT IL-3Rα staining for each antibody was set as 100% then the MFI of each mutant was normalized to a percent of WT staining.
# [2] = molecular target: T2, human IL-3Rα E51Q/S59A double mutant, …; assay: flow cytometry on transfected cells (FIG. 5)
# [3] = molecular target: T3, human IL-3Rα E51Q/P88T double mutant, …; assay: flow cytometry on transfected cells (FIG. 5)
# [4] = molecular target: T4, human IL-3Rα S59A/P88T double mutant, …; assay: flow cytometry on transfected cells (FIG. 5)
# [5] = molecular target: T5, human IL-3Rα E51Q/S59A/P88T triple …; assay: flow cytometry on transfected cells (FIG. 5)
# [6] = molecular target: T6, soluble human IL-3Rα 1-306-His E51A; assay: Western blot, supernatants of 293FS cells
# [7] = molecular target: T7, soluble human IL-3Rα 1-306-His F70A; assay: Western blot, supernatants of 293FS cells
Binder,MFI as percent of WT staining [1],binding result [2],binding result [3],binding result [4],binding result [5],binding result [6],binding result [7]
"monoclonal antibody 7G3 (antibody, V domains shown, mouse monoclonal antibody (hybridoma ATCC HB-12009)) VH: EVQLQQSGPELVKPGASVKMSCKASGYTFTDYYMKWVKQSHGKSLEWIGDIIPSNGATFYNQKFKGKATLTVDRSSSTAYMHLNSLTSEDSAVYYCTRSHLLRASWFAYWGQGTLVTVSA VL: DFVMTQSPSSLTVTAGEKVTMSCKSSQSLLNSGNQKNYLTWYLQKPGQPPKLLIYWASTRESGVPDRFTGSGSGTDFTLTISSVQAEDLAVYYCQNDYSYPYTFGGGTKLEIKR",100 % of WT MFI,–,–,–,–,–,–
"antibody CSL362 (antibody, V domains shown) VH: EVQLVQSGAEVKKPGESLKISCKGSGYSFTDYYMKWARQMPGKGLEWMGDIIPSNGATFYNQKFKGQVTISADKSISTTYLQWSSLKASDTAMYYCARSHLLRASWFAYWGQGTMVTVSS VL: DIVMTQSPDSLAVSLGERATINCESSQSLLNSGNQKNYLTWYQQKPGQPPKPLIYWASTRESGVPDRFSGSGSGTDFTLTISSLQAEDVAVYYCQNDYSYPYTFGQGTKLEIKR",–,no binding,no binding,no binding,no binding,no binding,no binding
